Starred links: 1 amine or outer side, 2 acyl side, 3 side chain; linkers in the order of their positions; H or OH if unused. Non-standard residues stand in square brackets, D forms with d. Primed or numbered codes have the meaning given here. *: point of attachment. Ser(Me)(3) = methylserine, COC[C@H](N[*:1])C(=O)[*:2]; Ser(Me)″ = O-methylserine, COC[C@H](N[*:1])C(=O)[*:2]; Cha = N[C@@H](CC1CCCCC1)C(=O)O; Isobutyryl = CC(C)C(=O)*; NMeA = CN[C@@H](C)C(=O)O; Nva = CCC[C@H](N)C(=O)O; Abu = CC[C@H](N)C(=O)O; Nleu = CC(C)CNCC(=O)O; Aib = CC(C)(N)C(=O)O; Bz = O=C(c1ccccc1)*
B1: Ac-[N(iBu)Gly24, Cha27,28,36, Aib31]-PYY(23-36) (peptide)
peptide: Ac-S[Nleu]RH[Cha][Cha]NL[Aib]TRQR[Cha]-NH2
SMILES: CC(=O)N[C@@H](CO)C(=O)N(CC(=O)N[C@@H](CCCNC(=N)N)C(=O)N[C@@H](Cc1c[nH]cn1)C(=O)N[C@@H](CC1CCCCC1)C(=O)N[C@@H](CC1CCCCC1)C(=O)N[C@@H](CC(N)=O)C(=O)N[C@@H](CC(C)C)C(=O)NC(C)(C)C(=O)N[C@H](C(=O)N[C@@H](CCCNC(=N)N)C(=O)N[C@@H](CCC(N)=O)C(=O)N[C@@H](CCCNC(=N)N)C(=O)N[C@@H](CC1CCCCC1)C(N)=O)[C@@H](C)O)CC(C)C
B2: Benzoyl-[Asn26, Cha27,28,36, Aib31]-PYY(25-36) (peptide)
peptide: Bz-RN[Cha][Cha]NL[Aib]TRQR[Cha]-NH2
SMILES: CC(C)C[C@H](NC(=O)[C@H](CC(N)=O)NC(=O)[C@H](CC1CCCCC1)NC(=O)[C@H](CC1CCCCC1)NC(=O)[C@H](CC(N)=O)NC(=O)[C@H](CCCNC(=N)N)NC(=O)c1ccccc1)C(=O)NC(C)(C)C(=O)N[C@H](C(=O)N[C@@H](CCCNC(=N)N)C(=O)N[C@@H](CCC(N)=O)C(=O)N[C@@H](CCCNC(=N)N)C(=O)N[C@@H](CC1CCCCC1)C(N)=O)[C@@H](C)O
B3: Isobutanoyl-[Abu26, Cha27,36, Ser28, Aib31]-PYY(25-36) (peptide)
peptide: Isobutyryl-R[Abu][Cha]SNL[Aib]TRQR[Cha]-NH2
SMILES: CC[C@H](NC(=O)[C@H](CCCNC(=N)N)NC(=O)C(C)C)C(=O)N[C@@H](CC1CCCCC1)C(=O)N[C@@H](CO)C(=O)N[C@@H](CC(N)=O)C(=O)N[C@@H](CC(C)C)C(=O)NC(C)(C)C(=O)N[C@H](C(=O)N[C@@H](CCCNC(=N)N)C(=O)N[C@@H](CCC(N)=O)C(=O)N[C@@H](CCCNC(=N)N)C(=O)N[C@@H](CC1CCCCC1)C(N)=O)[C@@H](C)O
B4: Isobutanoyl-[Abu26, Cha27,36, His28, Aib31]-PYY(25-36) (peptide)
peptide: Isobutyryl-R[Abu][Cha]HNL[Aib]TRQR[Cha]-NH2
SMILES: CC[C@H](NC(=O)[C@H](CCCNC(=N)N)NC(=O)C(C)C)C(=O)N[C@@H](CC1CCCCC1)C(=O)N[C@@H](Cc1c[nH]cn1)C(=O)N[C@@H](CC(N)=O)C(=O)N[C@@H](CC(C)C)C(=O)NC(C)(C)C(=O)N[C@H](C(=O)N[C@@H](CCCNC(=N)N)C(=O)N[C@@H](CCC(N)=O)C(=O)N[C@@H](CCCNC(=N)N)C(=O)N[C@@H](CC1CCCCC1)C(N)=O)[C@@H](C)O
B5: Benzoyl-[Ser(Me)26, Cha27,28,36, Aib31]-PYY(25-36) (peptide)
peptide: Bz-R[Ser(Me)″][Cha][Cha]NL[Aib]TRQR[Cha]-NH2
SMILES: COC[C@H](NC(=O)[C@H](CCCNC(=N)N)NC(=O)c1ccccc1)C(=O)N[C@@H](CC1CCCCC1)C(=O)N[C@@H](CC1CCCCC1)C(=O)N[C@@H](CC(N)=O)C(=O)N[C@@H](CC(C)C)C(=O)NC(C)(C)C(=O)N[C@H](C(=O)N[C@@H](CCCNC(=N)N)C(=O)N[C@@H](CCC(N)=O)C(=O)N[C@@H](CCCNC(=N)N)C(=O)N[C@@H](CC1CCCCC1)C(N)=O)[C@@H](C)O
B6: Ac-[Abu23, D-Pro24, Abu26, Cha27,28,36, Aib31]-PYY(23-36) (peptide)
peptide: Ac-[Abu][dP]R[Abu][Cha][Cha]NL[Aib]TRQR[Cha]-NH2
SMILES: CC[C@H](NC(=O)[C@H](CCCNC(=N)N)NC(=O)[C@H]1CCCN1C(=O)[C@H](CC)NC(C)=O)C(=O)N[C@@H](CC1CCCCC1)C(=O)N[C@@H](CC1CCCCC1)C(=O)N[C@@H](CC(N)=O)C(=O)N[C@@H](CC(C)C)C(=O)NC(C)(C)C(=O)N[C@H](C(=O)N[C@@H](CCCNC(=N)N)C(=O)N[C@@H](CCC(N)=O)C(=O)N[C@@H](CCCNC(=N)N)C(=O)N[C@@H](CC1CCCCC1)C(N)=O)[C@@H](C)O
B7: Ac-[D-Ser23, MeAla24, Cha27,28,36, Aib31]-PYY(23-36) (peptide)
peptide: Ac-[dS][NMeA]RH[Cha][Cha]NL[Aib]TRQR[Cha]-NH2
SMILES: CC(=O)N[C@H](CO)C(=O)N(C)[C@@H](C)C(=O)N[C@@H](CCCNC(=N)N)C(=O)N[C@@H](Cc1c[nH]cn1)C(=O)N[C@@H](CC1CCCCC1)C(=O)N[C@@H](CC1CCCCC1)C(=O)N[C@@H](CC(N)=O)C(=O)N[C@@H](CC(C)C)C(=O)NC(C)(C)C(=O)N[C@H](C(=O)N[C@@H](CCCNC(=N)N)C(=O)N[C@@H](CCC(N)=O)C(=O)N[C@@H](CCCNC(=N)N)C(=O)N[C@@H](CC1CCCCC1)C(N)=O)[C@@H](C)O
B8: Benzoyl-[Nva27, Cha28,36, Aib31]-PYY(25-36) (peptide)
peptide: Bz-RH[Nva][Cha]NL[Aib]TRQR[Cha]-NH2
SMILES: CCC[C@H](NC(=O)[C@H](Cc1c[nH]cn1)NC(=O)[C@H](CCCNC(=N)N)NC(=O)c1ccccc1)C(=O)N[C@@H](CC1CCCCC1)C(=O)N[C@@H](CC(N)=O)C(=O)N[C@@H](CC(C)C)C(=O)NC(C)(C)C(=O)N[C@H](C(=O)N[C@@H](CCCNC(=N)N)C(=O)N[C@@H](CCC(N)=O)C(=O)N[C@@H](CCCNC(=N)N)C(=O)N[C@@H](CC1CCCCC1)C(N)=O)[C@@H](C)O
B9: Benzoyl-[His27, Cha28,36, Aib31]-PYY(25-36) (peptide)
peptide: Bz-RHH[Cha]NL[Aib]TRQR[Cha]-NH2
SMILES: CC(C)C[C@H](NC(=O)[C@H](CC(N)=O)NC(=O)[C@H](CC1CCCCC1)NC(=O)[C@H](Cc1c[nH]cn1)NC(=O)[C@H](Cc1c[nH]cn1)NC(=O)[C@H](CCCNC(=N)N)NC(=O)c1ccccc1)C(=O)NC(C)(C)C(=O)N[C@H](C(=O)N[C@@H](CCCNC(=N)N)C(=O)N[C@@H](CCC(N)=O)C(=O)N[C@@H](CCCNC(=N)N)C(=O)N[C@@H](CC1CCCCC1)C(N)=O)[C@@H](C)O
B10: Ac-[Ser(Me)23, D-Pro24, Abu26, Cha27,28,36, Aib31]-PYY(23-36) (peptide)
peptide: Ac-[Ser(Me)(3)][dP]R[Abu][Cha][Cha]NL[Aib]TRQR[Cha]-NH2
SMILES: CC[C@H](NC(=O)[C@H](CCCNC(=N)N)NC(=O)[C@H]1CCCN1C(=O)[C@H](COC)NC(C)=O)C(=O)N[C@@H](CC1CCCCC1)C(=O)N[C@@H](CC1CCCCC1)C(=O)N[C@@H](CC(N)=O)C(=O)N[C@@H](CC(C)C)C(=O)NC(C)(C)C(=O)N[C@H](C(=O)N[C@@H](CCCNC(=N)N)C(=O)N[C@@H](CCC(N)=O)C(=O)N[C@@H](CCCNC(=N)N)C(=O)N[C@@H](CC1CCCCC1)C(N)=O)[C@@H](C)O
B11: Isobutanoyl-[Abu26, Cha27,36, Gln28, Aib31]-PYY(25-36) (peptide)
peptide: Isobutyryl-R[Abu][Cha]QNL[Aib]TRQR[Cha]-NH2
SMILES: CC[C@H](NC(=O)[C@H](CCCNC(=N)N)NC(=O)C(C)C)C(=O)N[C@@H](CC1CCCCC1)C(=O)N[C@@H](CCC(N)=O)C(=O)N[C@@H](CC(N)=O)C(=O)N[C@@H](CC(C)C)C(=O)NC(C)(C)C(=O)N[C@H](C(=O)N[C@@H](CCCNC(=N)N)C(=O)N[C@@H](CCC(N)=O)C(=O)N[C@@H](CCCNC(=N)N)C(=O)N[C@@H](CC1CCCCC1)C(N)=O)[C@@H](C)O
B12: Ac-[Phe23, D-Pro24, Abu26, Cha27,28,36, Aib31]-PYY(23-36) (peptide)
peptide: Ac-F[dP]R[Abu][Cha][Cha]NL[Aib]TRQR[Cha]-NH2
SMILES: CC[C@H](NC(=O)[C@H](CCCNC(=N)N)NC(=O)[C@H]1CCCN1C(=O)[C@H](Cc1ccccc1)NC(C)=O)C(=O)N[C@@H](CC1CCCCC1)C(=O)N[C@@H](CC1CCCCC1)C(=O)N[C@@H](CC(N)=O)C(=O)N[C@@H](CC(C)C)C(=O)NC(C)(C)C(=O)N[C@H](C(=O)N[C@@H](CCCNC(=N)N)C(=O)N[C@@H](CCC(N)=O)C(=O)N[C@@H](CCCNC(=N)N)C(=O)N[C@@H](CC1CCCCC1)C(N)=O)[C@@H](C)O

How the values were obtained:
[1] = target: human Y2 receptor (human) (UniProt P49146); assay: cell-based or functional assay
human Y2 receptor (human), sequence (P49146 whole entry): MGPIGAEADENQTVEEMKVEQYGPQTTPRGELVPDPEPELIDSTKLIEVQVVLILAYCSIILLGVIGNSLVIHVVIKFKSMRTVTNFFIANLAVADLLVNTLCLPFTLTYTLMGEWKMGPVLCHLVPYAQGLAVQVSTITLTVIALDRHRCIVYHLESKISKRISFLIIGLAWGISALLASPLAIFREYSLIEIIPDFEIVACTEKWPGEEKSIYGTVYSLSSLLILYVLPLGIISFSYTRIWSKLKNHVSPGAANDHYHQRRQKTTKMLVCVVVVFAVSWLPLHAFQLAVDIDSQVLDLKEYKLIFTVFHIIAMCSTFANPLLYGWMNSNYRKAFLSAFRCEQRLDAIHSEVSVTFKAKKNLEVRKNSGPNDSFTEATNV

[2] = target: human Y2 receptor (human) (UniProt P49146); assay: RBA: [125I]-PYY displacement, hY2R/CHO membranes

Molecule	GBA EC50 Ratio (vs PYY(3-36)), [35S]GTPγS [1]	IC50 Ratio (vs PYY(3-36)) [2]
[βAla23, D-Pro24, Cha27,28,36, Aib31]-PYY(23-36) (peptide)	1.2	1.7
[Lys(Ac)23, D-Pro24, Cha27,28,36, Aib31]-PYY(23-36) (peptide)	2.5	5.4
[(PEG2)23, D-Pro24, Cha27,28,36, Aib31]-PYY(23-36) (peptide)	0.9	0.9
Ac-[Lys(Me2)23, D-Pro24, Cha27,28,36, Aib31]-PYY(23-36) (peptide)	1.3	0.92
Ac-[D-Pro24, Pya(4)26, Cha27,36, Aib28,31, Lys30]-PYY(23-36) (peptide)	1.3	1.8
Ac-[Ala26, Ile28,31, Arg(Me)35]-PYY(22-36) (peptide)	13	50
[N(2-hydroxyethyl)Gly23, D-Pro24, Cha27,28,36, Aib31]-PYY(23-36) (peptide)	1.2	2
Ac-[Aad23, D-Pro24, Cha27,28,36, Aib31]-PYY(23-36) (peptide)	1.2	2.8
[N(iBu)Gly23, D-Pro24, Cha27,28,36, Aib31]-PYY(23-36) (peptide)	2.4	5.8
B1	8.4	20
B2	21	19
B3	35	49
B4	13	19
B5	8.7	18
B6	4	6.9
B7	5.1	6.1
B8	8.6	13
B9	4.3	5.6
B10	3.8	5.2
B11	30	45
B12	5.9	12

Source: patent US20120172293A1 (Takeda / Millennium, published 2012)
